{
  "source": "paper PMC4335062",
  "about": "“Data-Driven Prediction and Design of bZIP Coiled-Coil Interactions” (PLoS Computational Biology, 2015)",
  "molecules": {"B1": {"name": "ATF5-d1, rhodamine-labelled at the N-terminus (designed binder)", "chain": "GESKEYKKGSGSC(Rhodamine Red C2‑maleimide)GKRIAYLRQRIAELRNENHVLESRIQRMEKEKDALQQDRDHLEYEL"}, "B2": {"name": "ATF5-d1, rhodamine-labelled at the C-terminus (designed binder)", "chain": "GESKEYKKGSGSKRIAYLRQRIAELRNENHVLESRIQRMEKEKDALQQDRDHLEYELGC(Rhodamine Red C2‑maleimide)", "notes": "solubility linker after the His tag; added at the C-terminus for labelling; source: E. coli RP3098, purified (Ni-NTA under denaturing conditions, reverse-phase HPLC)"}, "B3": {"name": "ATF5: native human bZIP coiled coil (protein)", "chain": "MSLLATLGLELDRALLPASGLGWLVDYGKLPPAPAPLAPYEVLGGALEGGLPVGGEPLAGDGFSDWMTERVDFTALLPLEPPLPPGTLPQPSPTPPDLEAMASLLKKELEQMEDFFLDAPPLPPPSPPPLPPPPLPPAPSLPLSLPSFDLPQPPVLDTLDLLAIYCRNEAGQEEVGMPPLPPPQQPPPPSPPQPSRLAPYPHPATTRGDRKQKKRDQNKSAALRYRQRKRAEGEALEGECQGLEARNRELKERAESVEREIQYVKDLLIEVYKARSQRTRSC", "modifications": "fluorescein at the C-terminus (FRET donor) or TAMRA (FRET acceptor), by assay", "notes": "native human bZIP coiled coil"}, "B4": {"name": "ATF2: native human bZIP coiled coil (protein)", "chain": "MKFKLHVNSARQYKDLWNMSDDKPFLCTAPGCGQRFTNEDHLAVHKHKHEMTLKFGPARNDSVIVADQTPTPTRFLKNCEEVGLFNELASPFENEFKKASEDDIKKMPLDLSPLATPIIRSKIEEPSVVETTHQDSPLPHPESTTSDEKEVPLAQTAQPTSAIVRPASLQVPNVLLTSSDSSVIIQQAVPSPTSSTVITQAPSSNRPIVPVPGPFPLLLHLPNGQTMPVAIPASITSSNVHVPAAVPLVRPVTMVPSVPGIPGPSSPQPVQSEAKMRLKAALTQQHPPVTNGDTVKGHGSGLVRTQSEESRPQSLQQPATSTTETPASPAHTTPQTQSTSGRRRRAANEDPDEKRRKFLERNRAAASRCRQKRKVWVQSLEKKAEDLSSLNGQLQSEVTLLRNEVAQLKQLLLAHKDCPVTAMQKKSGYHTADKDDSSEDISVPSSPHTEAIQHSSVSTSNGVSSTSKAEAVATSVLTQMADQSTEPALSQIVMAPSSQSQPSGS", "modifications": "fluorescein at the C-terminus (FRET donor) or TAMRA (FRET acceptor), by assay", "notes": "native human bZIP coiled coil"}},
  "key": {"[1]": {"target": "T1, XBP1 (Homo sapiens, UniProt P17861)", "T1 construct": "made in house", "T1 sequence (P17861 70-133 limits assumed)": "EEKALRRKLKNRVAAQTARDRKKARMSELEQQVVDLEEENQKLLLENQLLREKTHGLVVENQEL", "test": "Direct-binding FRET assay", "conditions": "C-terminal rhodamine design", "experimental": "(§1) The direct binding assay was performed manually in 384-well plates and is similar to a previously described assay. Wells were filled with 20 μL of 1 mM TCEP-HCl. A 4 μM stock of acceptor protein was made fresh in 1 mM TCEP-HCl, and 20 μL was titrated in 2-fold dilutions over the wells. […] The direct-binding FRET data were fit as previously described. Briefly, the Kd of the designed peptide homodimer was experimentally determined and used with previously determined target homodimer Kd values to determine the heterodimer Kd. The homodimer Kd values used for the human bZIPs were from; experiments done by […] et al. used the same protein constructs for the human bZIP proteins, the same buffer conditions, and the same assay. The fitting used a system of ordinary differential equations to describe the concentrations of homo and heterodimers formed by the donor (D) and acceptor (A) as a function of the heterodimer Kd. MATLAB was used to simulate the binding experiment for different Kd values, and the value that gave the best agreement between simulation and experiment was assigned. A minimum 15% change in the donor fluorescence upon titrating the acceptor peptide from 0 to 1000 nM was required for a fit to be attempted. If this minimum was not met, the interaction was classified as “NS” for no signal change. […] For such curves, we removed the first five points and re-fit the data."}, "[2]": {"target": "T2, ATF3 (Homo sapiens, UniProt P18847)", "T2 construct": "made in house", "T2 sequence (P18847 86-149 limits assumed)": "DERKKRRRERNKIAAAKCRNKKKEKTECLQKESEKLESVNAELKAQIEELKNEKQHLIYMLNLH", "test": "Direct-binding FRET assay", "conditions": "C-terminal rhodamine design, mean or single, read-out: Kd", "experimental": "as §1"}, "[3]": {"target": "JUN (Homo sapiens, UniProt P05412)", "test": "Direct-binding FRET assay", "set-up": "made in house", "conditions": "37°C; C-terminal rhodamine design; mean or single; read-out: Kd", "experimental": "as §1"}, "[4]": {"target": "XBP1 bZIP (Homo sapiens) (UniProt P17861)", "conditions": "cited from earlier work"}, "[5]": {"target": "BATF2 bZIP, C-terminally fluoresceinated (human) (UniProt Q8N1L9)", "sequence (Q8N1L9 whole entry)": "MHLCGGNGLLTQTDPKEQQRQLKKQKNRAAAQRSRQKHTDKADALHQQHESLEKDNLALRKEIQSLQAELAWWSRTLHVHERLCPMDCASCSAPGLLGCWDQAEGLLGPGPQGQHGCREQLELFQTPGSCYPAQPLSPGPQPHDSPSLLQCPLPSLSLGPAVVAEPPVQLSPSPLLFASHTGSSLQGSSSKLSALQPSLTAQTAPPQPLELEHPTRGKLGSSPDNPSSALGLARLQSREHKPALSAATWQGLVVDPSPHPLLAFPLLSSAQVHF", "test": "FRET or BRET; direct-binding FRET at 4°C; 10 nM fluorescein-labelled bZIP (donor), rhodamine-labelled design (acceptor) titrated 0 to 1 μM; 150 mM KCl, 50 mM potassium phosphate pH 7.4, 0.1% Tween-20, 0.1% BSA"}, "[6]": {"target": "T3, Activating Transcription Factor 4 (ATF4) bZIP construct, C-terminally fluoresceinated (human, UniProt P18848 278-351, fluorescein at the C-terminus)", "T3 construct": "source: previously described, donated by A.W. Reinke [18]", "T3 sequence (looked up)": "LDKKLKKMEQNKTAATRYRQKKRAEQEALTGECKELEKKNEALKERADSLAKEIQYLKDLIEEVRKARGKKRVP", "test": "FRET or BRET; direct-binding FRET at 37°C; 10 nM fluorescein-labelled bZIP (donor), rhodamine-labelled design (acceptor) titrated 0 to 1 μM; 150 mM KCl, 50 mM potassium phosphate pH 7.4, 0.1% Tween-20, 0.1% BSA", "conditions": "both partners purified"}, "[7]": {"target": "partner bZIP coiled coil (Protein2)", "conditions": "cited from earlier work", "experimental": "Supplement pcbi.1004046.s020.csv, table | column: Kd || Fig 4 Designed bZIP-binding peptides inhibit interactions of native bZIP dimers. […] The dissociation constants at the indicated temperatures are Kd ≤ 1 nM for FOS-JUN, Kd ≤1 nM for XBP1-CREBZF, and Kd = 60 nM for ATF4-FOS, according to [18]. Fluorescence intensities were measured at both 37°C and 23°C, a ..."}},
  "note": "Read-outs that look alike come from different tables or passages of the source. Where no end group is shown, it is not given here.",
  "data": [
    {"molecule": "AETDQLENRVKDLKKKNESLKEEKRQASNKYKALLTNNRSLKVKA [XBP1-d2]", "values": [
      {"measurement": "Kd", "setting": "[1]; 37°C, mean or single, read-out: Kd", "result": "≥ 5000", "unit": "nM"},
      {"measurement": "binding to XBP1", "setting": "[1]; 4, 23 or 37°C", "result": "did not bind detectably"}
    ]},
    {"molecule": "KDAASLENKKEELKVQNRILVDERKYLQMMNSELKDELAAHE [ATF3-d3]", "values": [
      {"measurement": "Kd", "setting": "[2]; 4°C", "result": 117, "unit": "nM"},
      {"measurement": "Kd", "setting": "[2]; 37°C", "result": "≥ 5000", "unit": "nM"}
    ]},
    {"molecule": "NDLARLENKAEELKVQNRILVDERKYLQREISELHDELAAHE [ATF3-d1]", "values": [
      {"measurement": "Kd", "setting": "[2]; 37°C", "result": "~1000", "unit": "nM"}
    ]},
    {"molecule": "NLVAQLEKKNEALKAENAALEIERIQLQDKIEELKYELAAIE [ATF3-d2]", "values": [
      {"measurement": "Kd", "setting": "[2]; 37°C", "result": 564, "unit": "nM"}
    ]},
    {"molecule": "QRALQLQKEKERLEKMNKKLAAEIESLLEERERLESVLNYHE [JUN-d2]", "values": [
      {"measurement": "Kd", "setting": "[3]", "result": 1, "unit": "nM"}
    ]},
    {"molecule": "XBP1 bZIP (from UniProt P17861)", "values": [
      {"measurement": "Kd", "setting": "[4]", "result": 8, "unit": "nM"}
    ]},
    {"molecule": "B1", "values": [
      {"measurement": "FRET efficiency", "setting": "[5]", "result": 0.65}
    ]},
    {"molecule": "B2", "values": [
      {"measurement": "Kd", "setting": "[6]", "result": "4.9 ± 1", "unit": "nM"},
      {"measurement": "FRET efficiency", "setting": "[5]", "result": 0.31}
    ]},
    {"molecule": "B3", "values": [
      {"measurement": "Kd", "setting": "[7]; Protein2 = CEBPE (HS), intra", "result": 27.8, "unit": "nM"},
      {"measurement": "Kd", "setting": "[7]; Protein2 = CI20 (CI), inter", "result": 551, "unit": "nM"}
    ]},
    {"molecule": "B4", "values": [
      {"measurement": "Kd", "setting": "[7]; Protein2 = ATF6 (HS), intra, 5000 assigned if Kd >5,000 nM or no binding", "result": 5000, "unit": "nM"},
      {"measurement": "Kd", "setting": "[7]; Protein2 = CE20 (CE), inter, 5000 assigned if Kd >5,000 nM or no binding", "result": 5000, "unit": "nM"}
    ]}
  ]
}
